We go through two molecules from article PMC12152161.

The target of test [1] is T1, full-length KIF1C(WT)−Flag−EGFP (UniProt O43896).
T1 sequence: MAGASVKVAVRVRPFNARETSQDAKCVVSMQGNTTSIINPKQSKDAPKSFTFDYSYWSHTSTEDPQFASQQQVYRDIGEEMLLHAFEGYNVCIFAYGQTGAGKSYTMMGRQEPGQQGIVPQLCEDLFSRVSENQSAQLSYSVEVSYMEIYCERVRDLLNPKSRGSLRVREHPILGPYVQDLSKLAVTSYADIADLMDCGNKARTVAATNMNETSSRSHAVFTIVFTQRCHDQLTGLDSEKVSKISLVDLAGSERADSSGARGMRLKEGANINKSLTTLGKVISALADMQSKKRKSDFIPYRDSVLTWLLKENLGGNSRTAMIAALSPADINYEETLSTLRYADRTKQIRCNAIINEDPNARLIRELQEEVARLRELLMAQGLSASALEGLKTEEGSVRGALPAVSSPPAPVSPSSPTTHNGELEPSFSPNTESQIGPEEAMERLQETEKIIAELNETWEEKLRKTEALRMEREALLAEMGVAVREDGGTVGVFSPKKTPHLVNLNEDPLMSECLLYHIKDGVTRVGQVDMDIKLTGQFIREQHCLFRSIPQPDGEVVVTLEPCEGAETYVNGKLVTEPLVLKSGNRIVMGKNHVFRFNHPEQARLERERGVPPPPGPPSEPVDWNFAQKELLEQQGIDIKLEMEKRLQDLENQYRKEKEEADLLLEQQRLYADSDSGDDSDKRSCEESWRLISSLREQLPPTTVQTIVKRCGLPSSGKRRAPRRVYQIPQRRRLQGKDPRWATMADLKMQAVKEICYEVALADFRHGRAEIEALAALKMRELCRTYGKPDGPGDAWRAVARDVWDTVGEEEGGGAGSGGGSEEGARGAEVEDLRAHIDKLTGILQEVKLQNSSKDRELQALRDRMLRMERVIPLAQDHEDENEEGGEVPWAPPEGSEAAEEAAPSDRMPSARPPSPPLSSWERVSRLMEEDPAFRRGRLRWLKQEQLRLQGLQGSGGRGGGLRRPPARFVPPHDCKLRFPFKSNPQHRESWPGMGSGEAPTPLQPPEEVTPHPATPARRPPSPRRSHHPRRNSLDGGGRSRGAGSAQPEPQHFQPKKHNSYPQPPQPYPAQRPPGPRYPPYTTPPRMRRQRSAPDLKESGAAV

Test [2] has as its target T2, full-length KIF1C(Y757A ∙ F764A)−Flag−EGFP (UniProt O43896).
T2 sequence: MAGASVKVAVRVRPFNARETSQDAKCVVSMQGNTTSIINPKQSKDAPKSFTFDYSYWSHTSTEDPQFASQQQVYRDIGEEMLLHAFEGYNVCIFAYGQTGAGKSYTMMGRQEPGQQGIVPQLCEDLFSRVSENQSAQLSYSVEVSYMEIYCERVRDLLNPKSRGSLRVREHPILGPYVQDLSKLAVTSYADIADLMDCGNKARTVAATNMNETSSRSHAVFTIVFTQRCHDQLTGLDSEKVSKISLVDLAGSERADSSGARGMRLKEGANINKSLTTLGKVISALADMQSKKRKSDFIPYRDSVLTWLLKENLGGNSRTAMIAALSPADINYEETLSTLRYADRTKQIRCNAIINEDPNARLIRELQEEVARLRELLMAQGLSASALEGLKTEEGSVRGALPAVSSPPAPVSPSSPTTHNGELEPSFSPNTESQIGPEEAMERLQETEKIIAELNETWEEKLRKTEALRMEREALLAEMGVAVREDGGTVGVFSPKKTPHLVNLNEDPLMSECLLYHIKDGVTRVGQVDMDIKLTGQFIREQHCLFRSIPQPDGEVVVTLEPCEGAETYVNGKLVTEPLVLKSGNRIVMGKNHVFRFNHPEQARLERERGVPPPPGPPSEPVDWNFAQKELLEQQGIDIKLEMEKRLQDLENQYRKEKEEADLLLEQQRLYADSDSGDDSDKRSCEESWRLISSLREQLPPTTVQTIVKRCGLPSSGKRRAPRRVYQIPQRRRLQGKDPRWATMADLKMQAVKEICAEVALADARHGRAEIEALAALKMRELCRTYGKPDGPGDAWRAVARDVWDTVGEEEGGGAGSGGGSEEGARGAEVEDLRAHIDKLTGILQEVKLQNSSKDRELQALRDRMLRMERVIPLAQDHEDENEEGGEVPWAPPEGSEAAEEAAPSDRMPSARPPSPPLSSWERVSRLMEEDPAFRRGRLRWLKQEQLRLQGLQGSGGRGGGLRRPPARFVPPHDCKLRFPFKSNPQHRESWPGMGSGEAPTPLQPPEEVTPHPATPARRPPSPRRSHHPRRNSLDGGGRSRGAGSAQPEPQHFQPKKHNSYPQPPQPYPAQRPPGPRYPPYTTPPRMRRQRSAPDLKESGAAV

B1: full-length Hook3(V614E)−Myc−FuRed (natural protein)
chain: MFSVESLERAELCESLLTWIQTFNVDAPCQTVEDLTNGVVMAQVLQKIDPAYFDENWLNRIKTEVGDNWRLKISNLKKILKGILDYNHEILGQQINDFTLPDVNLIGEHSDAAELGRMLQLILGCAVNCEQKQEYIQAIMMMEESVQHVVMTAIQELMSKESPVSAGNDAYVDLDRQLKKTTEELNEALSAKEEIAQRCHELDMQVAALQEEKSSLLAENQVLMERLNQSDSIEDPNSPAGRRHLQLQTQLEQLQEETFRLEAAKDDYRIRCEELEKEISELRQQNDELTTLADEAQSLKDEIDVLRHSSDKVSKLEGQVESYKKKLEDLGDLRRQVKLLEEKNTMYMQNTVSLEEELRKANAARSQLETYKRQVVELQNRLSEESKKADKLDFEYKRLKEKVDSLQKEKDRLRTERDSLKETIEELRCVQAQEGQLTTQGLMPLGSQESSDSLAAEIVTPEIREKLIRLQHENKMLKLNQEGSDNEKIALLQSLLDDANLRKNELETENRLVNQRLLEVQSQVEELQKSLQDQGSKAEDSVLLKKKLEEHLEKLHEANNELQKKRAIIEDLEPRFNNSSLKIEELQEALRKKEEEMKQMEERYKKYLEKAKSEIRTLDPKQNQGAAPEIQALKNQLQERDRLFHSLEKEYEKTKSQREMEEKYIVSAWYNMGMTLHKKAAEDRLASTGSGQSFLARQRQATSSRRSYPGHVQPATAR
In the case of B1, the tail/cytoplasm ratio of Hook3−Myc−FuRed upon co-expression in RPE1 cells, 16 h post transfection (tail/cytoplasm ratio) in test [1] and in test [2] was 0.7 throughout.

B2: full-length Hook3(WT)−Myc−FuRed (natural protein)
chain: MFSVESLERAELCESLLTWIQTFNVDAPCQTVEDLTNGVVMAQVLQKIDPAYFDENWLNRIKTEVGDNWRLKISNLKKILKGILDYNHEILGQQINDFTLPDVNLIGEHSDAAELGRMLQLILGCAVNCEQKQEYIQAIMMMEESVQHVVMTAIQELMSKESPVSAGNDAYVDLDRQLKKTTEELNEALSAKEEIAQRCHELDMQVAALQEEKSSLLAENQVLMERLNQSDSIEDPNSPAGRRHLQLQTQLEQLQEETFRLEAAKDDYRIRCEELEKEISELRQQNDELTTLADEAQSLKDEIDVLRHSSDKVSKLEGQVESYKKKLEDLGDLRRQVKLLEEKNTMYMQNTVSLEEELRKANAARSQLETYKRQVVELQNRLSEESKKADKLDFEYKRLKEKVDSLQKEKDRLRTERDSLKETIEELRCVQAQEGQLTTQGLMPLGSQESSDSLAAEIVTPEIREKLIRLQHENKMLKLNQEGSDNEKIALLQSLLDDANLRKNELETENRLVNQRLLEVQSQVEELQKSLQDQGSKAEDSVLLKKKLEEHLEKLHEANNELQKKRAIIEDLEPRFNNSSLKIEELQEALRKKEEEMKQMEERYKKYLEKAKSVIRTLDPKQNQGAAPEIQALKNQLQERDRLFHSLEKEYEKTKSQREMEEKYIVSAWYNMGMTLHKKAAEDRLASTGSGQSFLARQRQATSSRRSYPGHVQPATAR
On to B2, for which the tail/cytoplasm ratio of Hook3−Myc−FuRed upon co-expression in RPE1 cells, 16 h post transfection (tail/cytoplasm ratio) in test [2] amounted to 0.7.
